We go through 167 variants from the RNAGym collection of RNA variant scans (doi:10.7554/elife.90254).

The chains are these.
B1: LINE1-mini (parent)
chain: GGCAGAGCUCAACACAGCGUGGCAAAGUGGCUGUGGCUAGACUGCC

Variants of B1 are the subject of this series. Put plainly: self-cleavage, relative activity (ratio to wild type); higher = more cleavage; in vitro, sequencing; the parent is a self-cleaving ribozyme.
A12U A41C: the self-cleavage is 0.04. To A12U G40C belongs 0.06. In the case of A12U G40A, the self-cleavage amounted to 0.21.

Regarding A12U G40U, the self-cleavage stood at 0.17. To A12G A39U belongs 0.08. In the case of A12G A39G, the self-cleavage was found to be 0.01. To A12G A39C belongs 0.04.

Turning to C13A C23U, the self-cleavage was 0.16.

Regarding C13A C23A, the self-cleavage amounted to 0.16. To C13A C23G belongs 0.13. To A12G C42G belongs 0.02.

As for A12G C42U, the self-cleavage amounted to 0.07. Regarding A12G C42A, the self-cleavage amounted to 0.05.

In the case of C13A G21U, the self-cleavage was 0.23.

With C13A G21A, the self-cleavage stood at 0.23.

For C13A G21C, the self-cleavage was determined as 0.14.

For C13A A41U, the self-cleavage worked out at 0.14. As for C13A A41C, the figure is 0.06; as for C13A A41G, 0.12.

Turning to A12U A39G, the self-cleavage was found to be 0.08. To A12U A39C belongs 0.11; to A12U A39U, 0.16. To C13A A26G belongs 0.12; to C13A A26U, 0.11. As for C13A A26C, the figure is 0.18. For A12U U20A, the self-cleavage turned out to be 0.12. A12U U20G: the self-cleavage is 0.09. With A12U U20C, the self-cleavage was 0.25. To C13A belongs 0.15. To C13G belongs 0.22. To A12U A16G belongs 0.16; to A12U A16U, 0.07. For the variant A12U A16C, the self-cleavage came to 0.05. To A12G C46G belongs 0.05. As for A12G C46A, the figure is 0.31; as for A12G C46U, 0.03. Turning to A12C G44C, the self-cleavage was determined as 0.05. To A12C G44U belongs 0.03; to A12U G22U, 0.29; to A12U G22C, 0.26.

In the case of A12U G22A, the self-cleavage was 0.4. To A12U C15G belongs 0.06; to A12U C15A, 0.09. For the variant A12U C15U, the self-cleavage was 0.1. On to A12U G21A, for which the self-cleavage was 0.52.

A12U G21C: the self-cleavage turned out to be 0.21. As for A12U G21U, the figure is 0.34; as for C13A U34A, 0.07; as for C13A U34C, 0.06. As for C13A U34G, the figure is 0.03; as for C13A G29U, 0.2.

For C13A G29A, the self-cleavage was determined as 0.19. As for C13A G29C, the figure is 0.06; as for A12G G21U, 0.03. As for A12G G21C, the figure is 0.01; as for A12G G21A, 0.05. With A12G A14U, the self-cleavage was 0.03. As for A12G A14C, the figure is 0.04; as for A12G A14G, 0.04. To A12U G36U belongs 0.16. To A12U G36C belongs 0.04; to A12U G36A, 0.04.

As to A12U G35U, the self-cleavage amounted to 0.13. To A12U G35A belongs 0.19. As for A12U G35C, the figure is 0.05.

For A12G G30A, the self-cleavage was 0.03.

Consider A12G G30U, for which the self-cleavage came out at 0.04. As for A12G G30C, the figure is 0.08; as for C13A C45A, 0.08; as for C13A C45U, 0.15. As for C13A C45G, the figure is 0.09. To A12G G40A belongs 0.06. Consider A12G G40C, for which the self-cleavage was determined as 0.1. As for A12G G40U, the self-cleavage came to 0.06. To C13A U20C belongs 0.04; to C13A U20A, 0.11; to C13A U20G, 0.1.

In the case of C13A A39U, the self-cleavage was 0.23.

Regarding C13A A39C, the self-cleavage is 0.17. C13A A39G: the self-cleavage amounted to 0.15. As for A12G G19C, the figure is 0.02; as for A12G G19U, 0.02; as for A12G G19A, 0.17. As for C13A C37G, the figure is 0.05; as for C13A C37U, 0.34. Take C13A C37A: the self-cleavage worked out at 0.09. As for A12U G27C, the figure is 0.22; as for A12U G27A, 0.3. As for A12U G27U, the figure is 0.23. Turning to A12U G29C, the self-cleavage worked out at 0.05. As for A12U G29A, the figure is 0.31; as for A12U G29U, 0.37.

With C13A A14C, the self-cleavage was 0.08. Take C13A A14G: the self-cleavage stood at 0.08. Regarding C13A A14U, the self-cleavage was determined as 0.12. To C13A U28A belongs 0.07; to C13A U28C, 0.15. For C13A U28G, the self-cleavage is 0.09. As for C13A U38G, the figure is 0.03. For C13A U38A, the self-cleavage worked out at 0.05. As for C13A U38C, the figure is 0.1; as for C13A A25G, 0.1. In the case of C13A A25U, the self-cleavage stood at 0.11. For the variant C13A A25C, the self-cleavage stood at 0.06. To A12C U34C belongs 0.03; to A12C U34G, 0.02. To A12C U34A belongs 0.02. To C13A G33U belongs 0.05; to C13A G33C, 0.06. As for C13A G33A, the self-cleavage was 0.08. To C13A U43G belongs 0.18; to C13A U43C, 0.08; to C13A U43A, 0.21. As for A12U G44A, the figure is 0.22; as for A12U G44U, 0.11. In the case of A12U G44C, the self-cleavage was determined as 0.17. As for A12G U34G, the figure is 0.02; as for A12G U34C, 0.05. As to A12G U34A, the self-cleavage turned out to be 0.03.

Consider C13A C18A, for which the self-cleavage was found to be 0.09. To C13A C18U belongs 0.09; to C13A C18G, 0.12; to A12G G36U, 0.03. For A12G G36A, the self-cleavage was determined as 0.06. Turning to A12G G36C, the self-cleavage was determined as 0.04. As for A12U U38C, the figure is 0.14; as for A12U U38A, 0.09.

Consider A12U U38G, for which the self-cleavage was 0.02.

For the variant A12C U20G, the self-cleavage worked out at 0.01. Turning to A12C U20C, the self-cleavage was determined as 0.01. As for A12C U20A, the figure is 0.03; as for A12U G19C, 0.32; as for A12U G19U, 0.19. To A12U G19A belongs 0.42; to C13A U32G, 0.08. In the case of C13A U32A, the self-cleavage is 0.11. In the case of C13A U32C, the self-cleavage was 0.09. As for A12G G33A, the figure is 0.07. To A12G G33U belongs 0.12; to A12G G33C, 0.03. To A12G C37U belongs 0.04; to A12G C37G, 0.02; to A12G C37A, 0.04. For the variant C13A A24U, the self-cleavage turned out to be 0.08. On to C13A A24C, for which the self-cleavage was 0.18.

As to C13A A24G, the self-cleavage came out at 0.11. As for A12U C42A, the figure is 0.06; as for A12U C42U, 0.13; as for A12U C42G, 0.04. To A12U C46A belongs 0.27. To A12U C46G belongs 0.45; to A12U C46U, 0.27. Take C13A G22A: the self-cleavage is 0.15. As for C13A G22C, the figure is 0.05; as for C13A G22U, 0.11; as for A12C U28C, 0.02. In the case of A12C U28G, the self-cleavage is 0.02. To A12C U28A belongs 0.02; to A12U G33U, 0.04. For the variant A12U G33C, the self-cleavage stood at 0.03. To A12U G33A belongs 0.05; to A12U U28G, 0.12; to A12U U28A, 0.2. To A12U U28C belongs 0.6; to C13A C31G, 0.06; to C13A C31U, 0.09. As for C13A C31A, the figure is 0.06.
